In US20180016324A1 (Regeneron, published 2018):

Tests used:
[1] = target: T1, ZIKV (prM80E) with a C-terminal myc-myc-hexahistidine tag (Zika virus, UniProt A0A024B7W1 104-694); test: SPR, mAb captured, 25C
T1 construct: also called ZIKV (prM80E)-mmH; ZIKV-mmH

[2] = target: T1, ZIKV (prM80E) with a C-terminal …; test: SPR, mAb captured, 37C
[3] = target: T1, ZIKV (prM80E) with a C-terminal …; test: SPR, mAb captured, 37C; remark: listed apart in the source
[4] = target: T2, ZIKV prM/E polyprotein on virus-like particles (VLPs) from HEK293T/17 cells (Zika virus, UniProt A0A024B7W1 123-795); test: MSD ECL, VLPs on plate
T2 construct: also called ZIKV prM/E VLPs; Zika prM/E VLPs

[5] = target: T1, ZIKV (prM80E) with a C-terminal …; test: SPR, mAb captured, 37C, pH 6.0 chase
[6] = target: ZIKV E protein with escape mutations T311I and K369E (Zika virus); test: cell-based or functional assay
[7] = target: T1, ZIKV (prM80E) with a C-terminal …; test: SPR, mAb captured, 37C, pH 5.5 chase
[8] = target: T1, ZIKV (prM80E) with a C-terminal …; test: SPR, mAb captured, 37C, pH 5.0 chase
[9] = target: T1, ZIKV (prM80E) with a C-terminal …; test: SPR, mAb captured, 37C, pH 7.4
[10] = target: T1, ZIKV (prM80E) with a C-terminal …; test: SPR, mAb captured, 37C; remark: listed apart in the source
[11] = target: ZIKV envelope glycoprotein (E) of strain PRVABC59 (Puerto Rico 2015) (Zika virus); test: cell-based or functional assay
[12] = target: ZIKV envelope glycoprotein (E) of strain FLR (Colombia 2015) (Zika virus); test: cell-based or functional assay
[13] = target: ZIKV envelope glycoprotein (E) of strain MR766 (Uganda 1947) (Zika virus, UniProt Q32ZE1 291-790); test: cell-based or functional assay

B1: H4H25703N (antibody, V domains shown)
VH: QVQLVESGGGVVQPGRSLRLSCAASGFTFNYYGMHWVRQAPGKGLEWVAVISYDGTNKYYADSVKGRFTTSRDNSKNTLYLQMNSLRAEDTALYYCARDRGGRFDYWGQGIQVTVSS
VL: EIVLTQSPDTLSLSPGERATLSCRASQSVSSNYLAWYQQKPGQAPRLLIYGASSRATGIPDRFSGSGSGTDFTLTISRLEPEDFAVYYCQRYGTSPLTFGGGTKVEIKR
Kd [1]: 0.542 nM | koff [1]: 0.000307 s⁻¹ | kon [1]: 566000 M⁻¹ s⁻¹ | t½ [1]: 37.6 min | t½ pH 7.4/t½ pH 6.0 [2]: 1.3 | t½ pH 7.4/t½ pH 5.0 [3]: 1.3 | t½ pH 7.4/t½ pH 5.5 [3]: 1.5 | EC50 [4]: 0.0846 nM | koff [5]: 0.00283 s⁻¹ | t½ [5]: 4.08 min | IC50 (read off the curve) [6]: ~1 nM | koff [7]: 0.00326 s⁻¹ | t½ [7]: 3.54 min | koff [8]: 0.0028 s⁻¹ | t½ [8]: 4.1 min | koff [9]: 0.00211 s⁻¹ | t½ [9]: 5.47 min | Kd [10]: 2.39 nM | koff [10]: 0.00177 s⁻¹ | kon [10]: 738000 M⁻¹ s⁻¹ | t½ [10]: 6.5 min | neutralization IC50, Vero cells [11]: 0.251 nM | neutralization IC50, Vero cells [12]: 0.0619 nM | neutralization IC50, Vero cells [13]: 0.0445 nM
